Drawing on paper PMC9751120, this text covers Ka and Kd for two molecules.

In experiment [1] the target is DARPin A5. Briefly: ITC; target protein titrated into a constant concentration of DARPin, 25 injections of 10 µl; 50 mM HEPES pH 7.4, 150 mM NaCl, 0.5 mM TCEP; 25 °C; AB hetero-association model (SEDPHAT). On the technique in general: In ITC the heat of successive injections is recorded.
The target of experiment [2] is DARPin A5. The experiment in a line: ITC; target proteins titrated to constant concentrations of DARPin; 50 mM HEPES, pH 7.4, 150 mM NaCl, 0.5 mM TCEP; AB hetero-association model (SEDPHAT); temperatures not shown.
In experiment [3] the target is Alexa 488 labeled DARPin C14. Briefly: fluorescence polarisation; fluorescence anisotropy; 500 nM Alexa 488 labeled DARPin constant, p63 isoform 0-10 µM; 50 mM Tris pH 8, 150 mM NaCl, 0.5 mM TCEP, 0.1 % Tween-20; the sheet says 20 °C, the methods 16 °C. In general terms: In fluorescence polarisation assays a small probe gives low polarisation when free and higher when bound to something large.

The target in experiment [4] is Alexa 488 labeled DARPin A5. The experiment is described as above.
Experiment [5] addresses Alexa 488 labeled DARPin 8F1. The experiment is described as above.

As a reminder, the Kd is the free concentration of one partner at which half of the binding sites on the other are occupied at equilibrium, for simple one-to-one binding.

B1: p63 Sterile α-motif (SAM) domain (domain or fragment)
chain: PPYPTDCSIVSFLARLGCSSCLDYFTTQGLTTIYQIEHYSMDDLASLKIPEQFRHAIWKGILDHRQL
In the experiment with DARPin A5 [1], B1 returned a Ka of 6.18e+07 M⁻¹. In the experiment with DARPin A5 [2], this molecule had a Kd of 16 nM.

B2: ΔNp63α (natural protein)
chain: MLYLENNAQTQFSEPQYTNLGLLNSMDQQIQNGSSSTSPYNTDHAQNSVTAPSPYAQPSSTFDALSPSPAIPSNTDYPGPHSFDVSFQQSSTAKSATWTYSTELKKLYCQIAKTCPIQIKVMTPPPQGAVIRAMPVYKKAEHVTEVVKRCPNHELSREFNEGQIAPPSHLIRVEGNSHAQYVEDPITGRQSVLVPYEPPQVGTEFTTVLYNFMCNSSCVGGMNRRPILIIVTLETRDGQVLGRRCFEARICACPGRDRKADEDSIRKQQVSDSTKNGDGTKRPFRQNTHGIQMTSIKKRRSPDDELLYLPVRGRETYEMLLKIKESLELMQYLPQHTIETYRQQQQQQHQHLLQKQTSIQSPSSYGNSSPPLNKMNSMNKLPSVSQLINPQQRNALTPTTIPDGMGANIPMMGTHMPMAGDMNGLSPTQALPPPLSMPSTSHCTPPPPYPTDCSIVSFLARLGCSSCLDYFTTQGLTTIYQIEHYSMDDLASLKIPEQFRHAIWKGILDHRQLHEFSSPSHLLRTPSSASTVSVGSSETRGERVIDAVRFTLRQTISFPPRDEWNDFNFDMDARRNKQQRIKEEGE
Regarding B2, the values for the Kd in experiment [3], in experiment [4] and in experiment [5] were 202 nM, 67.9 nM and 95.6 nM, respectively.
